Results on 1 protein are retold here after PMC10371975, “Potential of Y. lipolytica epoxide hydrolase for efficient production of enantiopure (R)-1,2-octanediol” (AMB Express, 2023).

A word on the Km: it is the concentration of substrate that gives half-maximal velocity. Broadly, the kcat is the maximal rate divided by the concentration of active sites.

Substrate in this data set: CCCCCCC1CO1
As to the kind of experiment: purified protein. The format is biochemical, Yarrowia lipolytica. To be noted: 50 mM Tris-sulphate pH 8.0, 30 °C, 0.1-0.7 mM EO, 1 µg enzyme.

B1: Yleh (Yarrowia lipolytica CLIB122) (protein)
chain: MTDSLSLGYYQLFHKYAVLGDKRWHYLDIPPTSPSPALLGSGKTLMLCHGFPDSWYGWRKQIPILRNLGYRLLVPSQMGYTRSEAPLYPTPEPNEKGEYPELGLEDGTDALKDLYCYTGKFYAQCMDELLTQLGIPTVTIIGHDYGAYLGPKLYLYFPHRVEAIATSCWHYVPALKKFFAIPDFIKLAPSLSYQAYLIGDASKDFATREGSEPFLRQVFGGEGWGGSDSSVHMTEPEFQNYMTEFATGGRFLSYMVSTYKARRLTFEIEKQDFLDKGRTPESMQVDVPYLHVGAEQDMAFRPPMIKNLRKYVKPGRLDEVWIDASHWLMFEKADEFNHELVKWLDKIHGSQSKL
notes: recombinant full-length 354-residue protein (ORF 1065 bp), pET28a+ vector, E. coli BL21AI host, Ni-NTA plus size exclusion purification (His tag implied); distinct from bifunctional Ylehd of the same yeast
Turning to B1, the Km amounted to 430 ± 17 µM and the kcat was 3.3458 ± 0.2163 s⁻¹.
